Reference: the nanobody polyreactivity screen of Harvey et al. (2022)

Assay: yeast display, Sf9 membrane polyspecificity reagent, FACS + sequencing; frameworks hold sequencing errors
Summary of the method: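 Nanobodies came from a synthetic yeast display library in Saccharomyces cerevisiae BJ5465, induced with galactose for 36–48 hours and stained for 1 hour at 4 °C with 10% biotinylated, detergent-solubilized Sf9 membrane reagent. Cells were enriched on streptavidin microbeads and then FACS-sorted, with low and high (top ~1%) gates set on anti-HA fluorescence for expression and streptavidin fluorescence for reagent binding. Each polyreactivity label reflects the gate a clone came from. Genes were amplified by colony PCR, sequenced by MiSeq 2 × 250 and filtered by CDR length.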

Row | Sequence | polyreactivity (PSR sort gate)
1 | QVQLVESGGGLVQAGGSLRISCAASGFTFSLNGMGWYRQAPGKEREMVAAIRSGGSTNYADSVKGRFTISLDNAKYTVYIQMNSLKPEDTAVYYCATDIHSVHNNRDKHDYDYLGQGTQVTVSS | low polyreactivity
2 | QVQLVQSGGGLVQAGGSLRLSCAASGRTFGTYAMGWYRQAPGKEREFVAVITNRGGRTYYADSVKGRFTISRDNAKNTVYLQMNSLKPEDTAVYYCTAVGRGWAFDYWGQGTQVTVSS | high polyreactivity
3 | QVQLVESGGGLVKAGGSLRLSCAASGIIFDYYAMGWYRQAPGKERELVAAISWDGGRTYYADSVKGRFTISRDNAKNTVYLQMNSLKPEDTAVYYCNKDYWYGYSDFDYWGQGTQVTVSS | low polyreactivity
4 | QVQLVESGGGLVQAGGSLRLAVLPPDLPSTLNDMGWYRQAPGKERELVAAITRGGSTNYADSVKGRFTISRDNAKNTVYLQMNSLKPEDTAVYDCAAPYAGWRDGGDYWGQGTQVTVSS | low polyreactivity
5 | QVQLVESGGGLVQAGGSLRLSCAASGITSPSYAMGWYRQAPGKERELVAAISKNGVRTYYADSVKGRFTISRDNAKNTVYLQMNSLKPEDTAVYYCAARYNPLYATLYRRMDYWGQGTQVTVSS | high polyreactivity
6 | QVQLVESGGGLVQAGGSLRLSCAASGRTFENYAMGWYRQAPGKERELVAAISKSGGSTYYADSVKGRFTISRDNAKNTVYLQMNSLKPEDTAVYYCNARPGQSGARFGYWGQGTQVTVSS | high polyreactivity
7 | QVQLVESGGGLVQAGGSLRLSCAASGSTFIFYAMGWYRQAPGKERELVATISGGGSTYYADSVKGRFTISRDNAKNTVYLQMNSLKPEDTAVYYCATDVQVPGIGRSVYAYEYWGQGTQVTVSS | low polyreactivity
8 | QVQLVESAGGLVQAGGSLRLSCAASGSIFTYYAMGWYIQAPGKERELVAAISSDGGRTFYADSVKGRFTISRDNAKNTVYLQMNSLKPEDTAVYYCAAETNRFPGYGYWGQGTQVTVSS | low polyreactivity
9 | QVQLVESGGGLVQAGGSLRLSCAASGRTLFGYAMGWYRQAPGKERELVAAITYGATSTYAHSVKGRFTISRDNAKNTVYLQMNSLKPEDTAVYYCNAYTPTDGFDYWGQGTQVTVSS | low polyreactivity
10 | QVHLVESGGGLVQAGGSLRLSCAASGRNFYTNVMGWSRQAPGKERELVAAISSGGGTTYYADSVKGRFTISRDNAKNTVYLQMNSLKPEDTAVYYCAADALSDEYDYWGQGTEVTVSS | low polyreactivity
11 | QVQLVESGGGLVQAGGSLRLSCAASGLTFSRYARGWYRQAPGKERELVAAISGSGGSTYYADSVKGRFTISRDNAKNTVYLQMNSLKPEDTAVYYCNKYRATNSARDYWGQGTQVTVSS | high polyreactivity
12 | QVQLEESGGGLVQAGGSLRLSCAASGSTFGRNTLGSYRPAPGKERELVAVISRRGGITTYADSVKGRFTISRENAKNTVYLQMNSLKPVDTAVYYCNAVSRVYNKGQYGYWGQGTQVSVSS | high polyreactivity
13 | QVQLVESGGGLVQAGASLRLSCAASGYTLDNYAMGWYRQAPWKERELVAGITFSGGSTFYADSVKGRFTISRDNAKNTVYLQMNRLKPEDTAVYYCAAEAEFQADHKYGYWGQGTQVTVSS | low polyreactivity
14 | QVQLVESGGGLVQAGGSLRLSCAASGSIFGLYAMGWYRQAPGKERELVAAITASDGSTYYADSVKGRFTISRDNAKNTVYLQMNSLKPEDTAVYYCNADAYSGYFLFDYWGQGTQVTVSS | low polyreactivity
15 | QVQLVESGGGLVQAGGSLRLSCAASGFTFGWYAMGWYRQAPGKERELVAAIRSDGSTYYADSVKGRFTISRDNAKNTVYLQMNSLKPEDTAVDYCAAVYYQRGWEFDYWGQGTQVTVSS | low polyreactivity
16 | QVQLVESGGGLVQAGGSLRLSCASSGSIFLSYTMGWYRKAPGKERELVAAISKRGGSSYYADSVKGRFTISRDNAKNTVYFQMNTLIPEDTAVYYFNADVRYRRRISVTNVYDYWGQGTQVTVSS | high polyreactivity
17 | QVQLVETGGGIVQAGGSLSLSCAASGRIFSPYAMGWYRQAPGKERELVAAISYDDGITYYADSVKGRFTISRDNAKNTVYLQMISLKPEDTAVYYCAADSVTRPAGDYWGQGTQVTVSS | low polyreactivity
18 | HVQLVESGGGLVQAGGSLRLSCAASGSIFGHYAMGWYRQATGKERELVAAISSGGSTNYADSVKGRFTISRDNAKNTVYLQMNSLIPEDTAVYYCAPTSWWPPGYDYWGQGTQVTVSS | high polyreactivity
19 | QVQIVESGGRLDQAGGILRLSCAASGRTFTVNAMGWNRQAPGKERELVATIRSGGTTNYAASVKGRFTISRDNAKNTVYLTMNRLKPEDTAVYYCNARVLTRTSVVRYYYWGQGTQVTVSS | high polyreactivity
20 | QDQLVESGGGLVQAAGSLRLSCAASGSTFLGNALGWYRQARGKERQLVAAISGRGGSTYYADSVKGRFTISRDNAKNTVYVQMNSLKPEDTAVYYCNAVGRRVRTWHDYDYWGKGTQVTVSS | high polyreactivity
21 | QVQLVESGGGLVQAGGSLRLSCAASGSIFYRYAMGWYRQAPGKERELVAAISSNGVSTYYADSVKGRFTISRDNAKNTVYLQMTSLNPEDTAVYYCARDVYASPRLYTSRYNYWGQGTQVTVSS | low polyreactivity
22 | QVQLVESGGGLVQAGGSLRLSCAASGSIFHWYTMGWYRQAPGKERELVATISAGGSTYYADSVKGRFKISRDNAKNTVYLQMNSLKPEDTAVYYCNRRVHGVYRWRRSDSWGQGTQVTVAS | high polyreactivity

Row | Sequence | polyreactivity (PSR sort gate)
23 | QVQLVESGGGLVQAGGSLRLSCAASGSIFSYYAMGWYRQAPGKERELVAAITTSGGSTYYADSVKGRVTISRDNAKNTVYLQMNSLKPEDTAVYYCAAETAWYITTGYDYWGQGTQVTVSS | low polyreactivity
24 | QVLLVESRGALVQAGGSLRLSCAASGSTFYWYAMGRYRQAPGKERELVASITRSGVRTYYADSVKGRFTISRDNGKNTVYLQMNSLKPEDTAVYYCAAERYYFPRSFRYGYWGQGTQVTVSS | low polyreactivity
25 | QVQLQESGGGLVHAGGSLRLSCAASGTISFINMMGWNRQAPGRERELVASINFGANTNYADSVKGRFTISRDNAKNTVYVQMNSLKPEDTAVYYCAVYDFDAYTLDYWGQGTLVTVSS | high polyreactivity
26 | QVQLVESGGGIVQAGRSLRLRCAASGSTFTPYGMGWYRQAPGKESELVAAITVSGGRTYYADSVKGRFTISRDNANNTVSLVMNSLKPEDTAVYYCAAVYLRADGDYDYWGQGTQVNVSS | low polyreactivity
27 | QVQLVESGGGLVQAGGRLRFTCAASGAIFHNYDMGGYRQATGKERQLVADISRGGDTNYADSVKGRFTISRDNAKNTVYLEMNSMKPEDTAVYYCNATYWILDSPWWRETFDYWGQGSQVTVSS | low polyreactivity
28 | QVQLVESGGGLVQAGGSLRLSCAASGLIFYSYAMGWYRQAPGKERELVAAISKRGGSTYYADSVKGRFTISRDNAKNTVYLQMNSLKPEDTAVYYCAAVIHGSSQYYGGTYGRYYWGQGTQVTVSS | high polyreactivity
29 | KVQLVESGGGLVQAGGSLRVRCAASGFTFGVYAMGWYRQAPGKEREFVAVITWRGGRTYYADSVKGRFTISRDNAQNTVYLQMNSLKPEDTGVYYCNARPRIYLTLYYWGQGTQVSVSS | high polyreactivity
30 | QVQLVESGGGLVQAGGSLRLSCAASGSTFSWYAMGWYRQAPGKERELVASISWRGGSTYYADSVKGRFTISRDNAKNTVSLQMNSLKPEDTAVYYCAADYDWKLFHEPPAVYDYDYWGQGTQVTVSS | low polyreactivity
31 | QVQLVESGGGLVQAGGSLRFSCAASGFTFYVYAMGWYRHAPGKERELVAAISKSGGSTYYSDSVKGRFTISRDNAKNTVYLQMNSLKPEDTAVYYCAVYDKRSGYRGGHRYNSWGQGTQVTVSS | high polyreactivity
32 | QVQLQESGGGLVQAGGSLRMSFAASGNIFDADIMGWYRPAPGKEPELVASITDGRRTNYADSVKGRYTIRRDSEKNTVYLQMNSLKPEDTAVYYCAAIAYPVVPTFVDFDSDYFHWGQGTHVTVSS | high polyreactivity
33 | QVQLVESGGGLVQAGGSLRLSCAASGSIFDYKAMGWYRQAPGKERELFADITISDDSTYYADSVKGRFTISRDNAKNTVYLQMNSLKPEDTAVYYCAADIKYYWYYYYWAYAYDYWGHGTQVTVSS | high polyreactivity
34 | QVQLVESGGGLVQAGGSLRLSCAASGIIFAYNAMGWYRQAPGKERELVAAISSGGRTNYADSVKGRFTISRDNAKNTVYLQMNSLKPEDTAVYYCAARPRYYWLGLKIYGYDYWGHGTQVTVSS | high polyreactivity
35 | QVQLVESGGGLVQAGGSLRLSCAASGSTFGYYAMGWYRQAPGKERELVAAITWGGASTDYADSVKGRFTISRDNAKNTVYLQMNSLKPEDTAVYYCAKDNWDNPRPTSEMDYWGQGTQVTVSS | low polyreactivity
36 | QVQLVESAGGLVQAGGSLRLSCAASGMILWRYSMGWYRKAPGKEMEFVAAISYRAGSTYYADSVKGRFTISRDNAKNTVYLQMNSLKPEDTAVYYCAAGLKRFGSYPWLKSGMGYWGQGTQVTVSS | high polyreactivity
37 | QVQLVESGGGLVQAGGSLLLSCAASGRIFRSYAMGWYRQAPGKERELVAAISSGGSTKYADSVKGRFTISRDNAKNTVYLQMNSLKPVDTAVYYCAASRTRLGTSGTSYGAAYDYWGQGTQVTVSS | high polyreactivity
38 | QVQLVESGGGLVQAGGSLRLSCAASGFIFPDYAMGWSRQAPGKERELVAAISKRGGSTYYADSVKGRFTISRDNAKNTVYLQMNSLKPEDTAVYYCAAVTSVNPSVFNGNYWGQGTHVTVSS | low polyreactivity
39 | QVQLVESGGGLVQAGGSLRLSCAASGFTFGYYAMGWYRQAPGKERELVAAITYDGDITYYADSVKGRFTISRDNAKNTVYLQMNSLKPEDTAVYYCAADTVYRSYYWGQGTQVTVSS | low polyreactivity
40 | QVQLVESGGGLVQAGGSLRLSCAASGVIFLWYAMGWYRQAPGKERELVARISNGGSTYYADSVKGRFTISRDNAKNTVYLQMISLKPEDTAVYYCNKVYYWIAYGHRSYLMDYWGQGTQVTVSS | high polyreactivity
41 | QVQLVESGGGLVQAGGSLRISCAASGRTFVRYAMGWYRQAPGKERELVAAIDSSGGRTYYADSVKGRFTISRDKAKNTVYLQMNSLKPEDTAVYYCNARRLASYRGYSWGQGTQVTVSS | high polyreactivity
42 | QVQLVDSGGGLVQAGGSLRLSCAASGSIFTAYAMGWYRQAPGKERELVAAITSGGSTNYADSVKGRFTISRDNAKNTVYLQMNSLKPEDTAVYYCNADDYWLDSWSSVLWYDYWGQGTQVTVSS | low polyreactivity
43 | QVQLLESGGGLVQAGGSHRLSCAASGIIFQWNVMGWYRQAPGKERELVASITSGSSTHYADSVKVRFTISRDNAKNSVYLQMNSLKPEDTAVYYFAADGALRAEYDVEIEYDYWGQGTQVNVSS | low polyreactivity
